Measured values reported in the Immune Epitope Database (IEDB).

What was measured:
Assay in all cases: IEDB peptide-MHC binding, purified MHC/competitive/radioactivity; filed as Kd, often an IC50 or EC50 that approximates it; ≥ and ≤ were set here for values at or beyond the usual limits of such assays
HLA-A*03:01 = target: HLA-A*03:01
HLA-A*11:01 = target: HLA-A*11:01
HLA-A*31:01 = target: HLA-A*31:01
HLA-A*33:01 = target: HLA-A*33:01
HLA-A*68:01 = target: HLA-A*68:01
[1] = source organism: Vaccinia virus WR
[2] = source organism: Dengue virus 2 Jamaica/1409/1983
[3] = source organism: Dengue virus 3 Martinique/1243/1999
[4] = source organism: Dengue virus 1 Brazil/97-11/1997
[5] = source organism: Triticum aestivum
[6] = source organism: Dengue virus 4 Philippines/H241/1956
[7] = source organism: Mammarenavirus machupoense
[8] = source organism: SARS coronavirus Tor2
[9] = source organism: Lymphocytic choriomeningitis virus (strain Armstrong)

| Sequence | Kd (HLA-A*03:01; [1]) [nM] | Kd (HLA-A*11:01; [1]) [nM] | Kd (HLA-A*31:01; [1]) [nM] | Kd (HLA-A*33:01; [1]) [nM] | Kd (HLA-A*68:01; [1]) [nM] | other results |
| --- | --- | --- | --- | --- | --- | --- |
| IIKLPTLFGR | 89.2 | 137 | 0.251 | 17.3 | 69.6 | – |
| KFNDYRKQMY | 4820 | ≥ 22400 | 196 | ≥ 59300 | ≥ 32400 | – |
| KINSVKYYGR | 1870 | 135 | 30.2 | 2420 | 5340 | – |
| ATSSFREKSR | 59.1 | 1.38 | 3.61 | 163 | 1.92 | – |
| MWTLMYFHR | – | – | – | – | – | Kd (HLA-A*31:01; [2]): 7.83 nM; Kd (HLA-A*33:01; [2]): 1.51 nM |
| TLSERISSK | 6.16 | 2.91 | 2310 | 9910 | 48.3 | – |
| SSYIDFENTK | 629 | 0.158 | 137 | 392 | 23.5 | – |
| FIHMVRCCK | 267 | 2010 | 421 | 360 | 6.32 | – |
| TYLALIATFK | – | – | – | – | – | Kd (HLA-A*33:01; [3]): 69.9 nM |
| NSEYIESKAK | 5890 | 1960 | ≥ 34200 | ≥ 30600 | 4190 | – |
| LLSIVVDINK | 485 | 35.9 | 1090 | 10500 | 110 | – |
| KLGEFGKAK | – | – | – | – | – | Kd (HLA-A*03:01; [2]): 22.1 nM |
| ISNMLSIINK | – | – | – | – | – | Kd (HLA-A*03:01; [3]): 142 nM; Kd (HLA-A*11:01; [3]): 113 nM |
| PISASDMQK | 3230 | 163 | 282 | 7290 | 8850 | – |
| QIFNEDTSYY | 1420 | 725 | ≥ 35700 | ≥ 70000 | 11.7 | – |
| LACTDPSER | ≥ 55100 | 19900 | 572 | 2310 | 173 | – |
| GLILFVLALY | ≥ 22000 | 7250 | ≥ 43900 | ≥ 26800 | 457 | – |
| AINVLRGFRK | – | – | – | – | – | Kd (HLA-A*03:01; [2]): 91.8 nM; Kd (HLA-A*11:01; [2]): 257 nM |
| KVIDLGCGR | – | – | – | – | – | Kd (HLA-A*31:01; [4]): 9210 nM |
| AIILHQQQK | – | – | – | – | – | Kd (HLA-A*03:01; [5]): 104 nM; Kd (HLA-A*11:01; [5]): 38.2 nM; Kd (HLA-A*31:01; [5]): ≥ 20600 nM; Kd (HLA-A*33:01; [5]): ≥ 77700 nM; Kd (HLA-A*68:01; [5]): 941 nM |
| MLIFNVKSK | 228 | 491 | ≥ 21100 | ≥ 45800 | 0.841 | – |

| Sequence | Kd (HLA-A*03:01; [1]) [nM] | Kd (HLA-A*11:01; [1]) [nM] | Kd (HLA-A*31:01; [1]) [nM] | Kd (HLA-A*33:01; [1]) [nM] | Kd (HLA-A*68:01; [1]) [nM] | other results |
| --- | --- | --- | --- | --- | --- | --- |
| GVTATITPR | – | – | – | – | – | Kd (HLA-A*31:01; [6]): 14.9 nM |
| KATTQIAPK | 46 | 4.81 | 86.2 | ≥ 39100 | 7050 | – |
| FLMAFANQIH | – | – | – | – | – | Kd (HLA-A*03:01; [7]): 11800 nM; Kd (HLA-A*11:01; [7]): ≥ 69700 nM; Kd (HLA-A*31:01; [7]): ≥ 70000 nM; Kd (HLA-A*33:01; [7]): ≥ 23800 nM; Kd (HLA-A*68:01; [7]): ≥ 31800 nM |
| DITFLRPVLK | 157 | 72.1 | 259 | 5840 | 42.3 | – |
| ECLRRRVTR | – | – | – | – | – | Kd (HLA-A*33:01; [6]): 244 nM |
| TSEKYSKGY | ≥ 78000 | ≥ 77900 | ≥ 77900 | ≥ 77700 | ≥ 77700 | – |
| RLNNPVILSK | 11.7 | 11.9 | 1550 | ≥ 54900 | 4490 | – |
| YVLGIFLRK | – | – | – | – | – | Kd (HLA-A*03:01; [6]): 1.22 nM; Kd (HLA-A*11:01; [6]): 9.88 nM |
| LLNKEMYLK | – | – | – | – | – | Kd (HLA-A*03:01; [8]): 10.7 nM; Kd (HLA-A*11:01; [8]): 16.9 nM; Kd (HLA-A*31:01; [8]): 155 nM; Kd (HLA-A*33:01; [8]): 6500 nM; Kd (HLA-A*68:01; [8]): 1100 nM |
| YVMNIERQDY | ≥ 70100 | 19000 | 10200 | ≥ 23300 | 189 | – |
| WLSYFVASFR | – | – | – | – | – | Kd (HLA-A*03:01; [8]): 56.6 nM; Kd (HLA-A*11:01; [8]): 14.5 nM; Kd (HLA-A*31:01; [8]): 0.461 nM; Kd (HLA-A*33:01; [8]): 13.4 nM; Kd (HLA-A*68:01; [8]): 0.494 nM |
| DSYTQVCDHR | – | – | – | – | – | Kd (HLA-A*33:01; source organism: Dengue virus 1 Nauru/West Pac/1974): 1820 nM |
| WSLMYFHRR | – | – | – | – | – | Kd (HLA-A*31:01; [3]): 0.548 nM; Kd (HLA-A*33:01; [3]): 0.235 nM |
| ASAFFGMSR | – | – | – | – | – | Kd (HLA-A*03:01; [8]): 3170 nM; Kd (HLA-A*11:01; [8]): 148 nM; Kd (HLA-A*31:01; [8]): 21.9 nM; Kd (HLA-A*33:01; [8]): ≥ 41500 nM; Kd (HLA-A*68:01; [8]): 197 nM |
| VVENPTIQK | – | – | – | – | – | Kd (HLA-A*03:01; [8]): 328 nM; Kd (HLA-A*11:01; [8]): 7.63 nM; Kd (HLA-A*31:01; [8]): 18700 nM; Kd (HLA-A*33:01; [8]): ≥ 64100 nM; Kd (HLA-A*68:01; [8]): 407 nM |
| ILSKWHTSAR | 36.3 | 3550 | 126 | 399 | 844 | – |
| RCHDHYLCR | – | – | – | – | – | Kd (HLA-A*03:01; [9]): ≥ 22300 nM; Kd (HLA-A*11:01; [9]): ≥ 25700 nM; Kd (HLA-A*31:01; [9]): 907 nM; Kd (HLA-A*33:01; [9]): ≥ 35600 nM; Kd (HLA-A*68:01; [9]): ≥ 10000 nM |
| VFAQVKQMYK | – | – | – | – | – | Kd (HLA-A*03:01; [8]): 66.5 nM; Kd (HLA-A*11:01; [8]): 60.6 nM; Kd (HLA-A*31:01; [8]): 124 nM; Kd (HLA-A*33:01; [8]): 863 nM; Kd (HLA-A*68:01; [8]): 179 nM |
| TTIFAGHLK | – | – | – | – | – | Kd (HLA-A*11:01; [4]): 30.7 nM; Kd (HLA-A*68:01; [4]): 25.4 nM |
| EECLRRRVTR | – | – | – | – | – | Kd (HLA-A*33:01; [6]): 779 nM |
| RMLFTSTNDK | 3.92 | 1.54 | 112 | 15100 | 35.6 | – |
